Experimental data taken from paper PMC5648196, “The transcriptional regulator LysG (Rv1985c) of Mycobacterium tuberculosis activates lysE (Rv1986) in a lysine-dependent manner”.

Assays:
[1] = target: T1, LysG(Mt) (Mycobacterium tuberculosis) (UniProt P9WMF5); test: EMSA
T1 sequence: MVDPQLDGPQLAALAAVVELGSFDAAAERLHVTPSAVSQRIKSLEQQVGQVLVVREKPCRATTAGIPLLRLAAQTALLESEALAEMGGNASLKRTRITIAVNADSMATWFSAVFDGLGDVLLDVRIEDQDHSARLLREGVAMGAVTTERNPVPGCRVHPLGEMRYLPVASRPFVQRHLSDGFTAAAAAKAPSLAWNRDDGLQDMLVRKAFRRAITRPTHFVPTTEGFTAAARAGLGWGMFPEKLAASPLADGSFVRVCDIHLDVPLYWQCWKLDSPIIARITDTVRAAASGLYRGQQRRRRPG

LysG(Mt) = target: T2, LysG(Mt) (Mycobacterium tuberculosis, UniProt P9WMF5 1-303); test: EMSA; 200 pmole LysG, 10 fmole DNA; settings: protein: recombinant, tags: His6 (pQE30-LysG(Mt)x6His), chain copies: 4, blunt
T2 sequence: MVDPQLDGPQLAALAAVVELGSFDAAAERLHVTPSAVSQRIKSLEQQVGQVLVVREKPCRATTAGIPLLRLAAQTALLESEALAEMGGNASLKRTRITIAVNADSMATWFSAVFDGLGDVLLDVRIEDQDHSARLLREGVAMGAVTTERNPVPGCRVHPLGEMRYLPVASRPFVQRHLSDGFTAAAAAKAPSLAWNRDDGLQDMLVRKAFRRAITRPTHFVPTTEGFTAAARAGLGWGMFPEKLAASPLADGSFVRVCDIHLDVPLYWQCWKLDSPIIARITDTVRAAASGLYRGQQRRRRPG

Molecule: CGCTGCGGTCATTGTGTTCCTCTTAGTCGTTCCGAAAGTTGTTCCAACAACTCGGCTTCGGTCAGTTCGTGGTAGGAGTCGGTGGCTTGCTGGGTTGCGACTGCGGTTGCCCCAATTTCGAGGAGCTCAGGC (double strand) [oligonucleotide VII (ppsC upstream)]
- binding [1]: no binding

Molecule: TTCAGACCGGCACGTTTCAGAGCGGTGGGGATGTCCCGACGTGCGATCCGACAGGGGTTCGCAGGGTCCGCAAAAAACATAGTGAACGCCAGAAAGCCGAATGGGAGTACAAGGCGATGCCGGT (double strand) [oligonucleotide V (fadD26 upstream)]
- binding [1]: no binding

B1: oligonucleotide II (dsDNA)
DNA 1: CTCAGGTGTAGACCATCTGCGGAGCGTCGCACTGCACATTAATAATGCTAATGT
DNA 2: ACATTAGCATTATTAATGTGCAGTGCGACGCTCCGCAGATGGTCTACACCTGAG
- binding result (LysG(Mt); label: 5'-biotin on reverse strand (834)): no binding

B2: oligonucleotide IV (dsDNA)
DNA 1: CGCACTGCACATTAATAATGCTAATGTAAATGAAGAATTATTAGCTATACTGAC
DNA 2: GTCAGTATAGCTAATAATTCTTCATTTACATTAGCATTATTAATGTGCAGTGCG
- binding result (LysG(Mt); label: 5'-biotin on reverse strand (838)): binds

B3: oligonucleotide III (dsDNA)
DNA 1: AAATGAAGAATTATTAGCTATACTGACCCATACAAACTGCCTAGTGTCGATTGC
DNA 2: GCAATCGACACTAGGCAGTTTGTATGGGTCAGTATAGCTAATAATTCTTCATTT
- binding result (LysG(Mt); label: 5'-biotin on reverse strand (836)): no binding
